This series deals with T1, 2x-p19-TAT (Carnation Italian Ringspot Virus, UniProt Q66104 1-172).
T1 sequence: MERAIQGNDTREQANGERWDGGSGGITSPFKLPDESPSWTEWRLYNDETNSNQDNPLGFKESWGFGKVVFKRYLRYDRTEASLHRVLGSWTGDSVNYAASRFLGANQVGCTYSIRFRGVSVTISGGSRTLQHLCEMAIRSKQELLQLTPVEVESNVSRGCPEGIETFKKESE
The experiment in a line: EMSA.

B1: Cy3-CSK siRNA (dsRNA)
RNA 1: CUACCGCAUCAUGUACCAUTT
RNA 2: AUGGUACAUGAUGCGGUAGTT
modifications: 3' dTdT on both strands (DNA residues written TT)
One may read the Kd as the free concentration of one partner at which half of the binding sites on the other are occupied at equilibrium, for simple one-to-one binding. With B1, binding was put at a Kd of 440 ± 160 pM.

(Values after paper PMC5014518.)
